Measurements published in PMC3900686 (2014).

Columns and labels:
Assay in all cases: ITC; LCMT-1 preloaded with SAH
[1] = biological target: methylated PP2A core enzyme (methylated AC heterodimer) ( |  ("mammalian …, UniProt P30153 1-589)); P67775 1-309, carboxyl methylation of the last leucine residue (Leu-309))
[2] = biological target: PP2A catalytic Cα-subunit (free PP2Ac) ( ("mammalian PP2Ac"), UniProt P67775 1-309)
[3] = biological target: PP2A core enzyme (A–C heterodimer), unmethylated ( |  ("mammalian …, UniProt P30153 1-589; P67775 1-309)
Chain of PP2A core enzyme (A–C heterodimer), unmethylated ( |  (P30153 whole entry, chain 1 of 2): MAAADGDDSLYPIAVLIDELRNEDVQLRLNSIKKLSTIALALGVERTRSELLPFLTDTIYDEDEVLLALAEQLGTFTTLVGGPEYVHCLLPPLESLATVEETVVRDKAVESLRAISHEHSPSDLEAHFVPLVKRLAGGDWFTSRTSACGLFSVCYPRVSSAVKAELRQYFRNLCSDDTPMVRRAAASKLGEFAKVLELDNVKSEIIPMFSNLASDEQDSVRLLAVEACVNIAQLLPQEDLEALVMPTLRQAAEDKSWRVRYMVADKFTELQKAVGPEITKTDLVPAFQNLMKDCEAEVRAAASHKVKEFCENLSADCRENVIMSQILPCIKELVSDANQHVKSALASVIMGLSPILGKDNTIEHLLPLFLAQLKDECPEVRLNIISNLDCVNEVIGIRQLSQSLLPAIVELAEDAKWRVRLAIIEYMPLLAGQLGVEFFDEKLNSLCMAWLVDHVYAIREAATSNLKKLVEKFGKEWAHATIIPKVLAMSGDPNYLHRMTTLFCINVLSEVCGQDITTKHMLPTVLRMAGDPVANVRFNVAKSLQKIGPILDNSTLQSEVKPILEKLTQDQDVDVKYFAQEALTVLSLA
Chain of PP2A core enzyme (A–C heterodimer), unmethylated ( |  (P67775 whole entry, chain 2 of 2): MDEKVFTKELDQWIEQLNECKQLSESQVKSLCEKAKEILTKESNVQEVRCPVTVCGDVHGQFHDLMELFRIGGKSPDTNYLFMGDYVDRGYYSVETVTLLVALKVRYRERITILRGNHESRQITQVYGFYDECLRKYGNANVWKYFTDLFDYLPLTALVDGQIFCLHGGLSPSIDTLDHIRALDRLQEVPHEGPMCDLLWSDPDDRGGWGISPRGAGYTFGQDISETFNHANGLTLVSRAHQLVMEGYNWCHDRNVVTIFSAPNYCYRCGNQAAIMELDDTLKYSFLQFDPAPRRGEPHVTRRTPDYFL

Chain of methylated PP2A core enzyme (methylated AC heterodimer) ( |  (P30153 whole entry, chain 1 of 2): as the sequence (P30153 whole entry, chain 1 of 2) above
Chain of methylated PP2A core enzyme (methylated AC heterodimer) ( |  (P67775 whole entry, chain 2 of 2): as the sequence (P67775 whole entry, chain 2 of 2) above
Chain of PP2A catalytic Cα-subunit (free PP2Ac) (P67775 whole entry): as the sequence (P67775 whole entry, chain 2 of 2) above

- Kd [1]: 630 nM
- Kd [2]: 560 nM
- Kd [3]: 140 nM
B1: PP2A-specific leucine carboxyl methyltransferase 1 (LCMT-1) (enzyme)
chain: MATRQRESSITSCCSTSSCDADDEGVRGTCEDASLCKRFAVSIGYWHDPYIQHFVRLSKERKAPEINRGYFARVHGVSQLIKAFLRKTECHCQIVNLGAGMDTTFWRLKDEDLLPSKYFEVDFPMIVTRKLHSIKCKPPLSSPILELHSEDTLQMDGHILDSKRYAVIGADLRDLSELEEKLKKCNMNTQLPTLLIAECVLVYMTPEQSANLLKWAANSFERAMFINYEQVNMGDRFGQIMIENLRRRQCDLAGVETCKSLESQKERLLSNGWETASAVDMMELYNRLPRAEVSRIESLEFLDEMELLEQLMRHYCLCWATKGGNELGLKEITY
